Patent US20120277286A1, “COMPOSITIONS AND METHODS FOR THE TREATMENT OR PREVENTION OF MITOCHONDRIAL DISEASES” (The Government of the USA, as represented by the Secretary, …, priority 2009, published 2012)
Substitutions are numbered along the chain they refer to. Names may count otherwise.

Key:
Assay type in all cases: cell-based
HeLa cells [1] = experiment: Regulated FRB/FKBP heterodimerization of PINK1 to outer mitochondrial membrane
Excerpt: In the presence of the rapamycin derivative AP21967, the FRB domain and the FKBP domain heterodimerize, but only if they are in the same compartment. Thus, FRB-PINK1Δ1-110-YFP should be recruited from the cytosol to mitochondria if the FKBP domain of TOM20-FKBP faces the cytosol but not if it faces the inner membrane space or the matrix. […] To assess whether PINK1 expression on the outer mitochondrial membrane is sufficient to recruit Parkin, mCherry-Parkin, FRB-PINK1Δ1-110-YFP, and TOM20-FKBP were co-transfected. In the absence of AP21967, mCherry-Parkin was in the cytosol, but following incubation AP21967 mCherry-Parkin was recruited to mitochondria in 96.7±4.1% of cells, in the absence of CCCP (FIG. 14F and FIG. 15D).
HeLa YFP-Parkin, E18 Rat cortical neurons, PINK1^+/+ SV40 transformed MEFs cells, PINK1^−/− SV40 transformed MEF, M17 neuroblastoma control shRNA, M17 neuroblastoma PINK1, Mfn1/2^−/− MEF, and Parl^−/− MEF cell lines have been described previously (Narendra (2008) J Cell Biol 183: 795-803). PINK1^+/+ and PINK1^−/− primary MEFs were isolated from embryos using a standard protocol (Gautier (2008) Proc Natl Acad Sci USA 105: 11364-11369). […]

HeLa cells [2] = experiment: PINK1-YFP imaging and colocalization in HeLa cells; conditions: 2 mM paraquat, 16 hours
Description: (§1) Confocal microscopy of fixed samples, scoring of Parkin recruitment and Parkininduced mitophagy, and live cell imaging were performed as described previously (Narendra (2008) J Cell Biol 183: 795-803). Experiments in Mfn1/2 null cells were performed as described previously with minor modifications.
as §1, with “Parkin-induced” for “Parkininduced”, “imageing” for “imaging”, “modifications described in the supplemental methods (Narendra (2008) J Cell Biol 183: 795-803).” for “modifications.”

HeLa cells [3] = experiment: Parkin colocalization with mitochondria scored by confocal microscopy; conditions: HeLa cells, 2 mM paraquat, 24 hours
Summary of the method: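 Transfected HeLa cells fixed 12–24 h post-transfection in 4% paraformaldehyde. Cells immunostained for mitochondrial markers and imaged by confocal microscopy. Parkin recruitment to mitochondria assessed by line-scan colocalization.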

PINK1 = PINK1 cleavage pattern by immunoblotting (Examples 4 and 5); conditions: HeLa; for levels of FL and/or ΔMTS-PINK1: absence of CCCP or MG132; for 52 kDa fragment of PINK1: absence of MG132 treatment
Description: PARL siRNA (5′-[…]-C′) were synthesized by Qiagen. In order to achieve efficient knockdown of PARL, cells were transfected twice over a period of 96 hrs. PINK1-V5/His was a gift from M. Cookson (National Institute of Health, Bethesda, Md.). For site-directed mutagenesis, primers were designed using Primer X, web-based mutagenic primer design program (http://www.bioinformatics.org/primerx/), and produced by Operon. 15 rounds of PCR reactions were performed using Phusion DNA polymerase (Finnzymes) and WT PINK1-YFP constructs as a template. Introduction of point mutations were confirmed by sequencing.
(§2) Cells were cultured in borosilicated chamber slides for imaging, 6-well plates for whole cell lysates, and 100 or 150 mm culture dish for subcellular fractionation. One day after seeding, cells were transfected with indicated constructs using Fugene HD (Roche) or Lipofectamine 2000 (Invitrogen) according to the manufacturer's guidelines.
For whole cell lysates, cells were washed twice with cold-PBS and then directly lysed with 1× sample buffer. For mitochondrial fraction, cells were fractionated as described previously (Narendra et al., 2008) and below, and then mitochondrial pellets were lysed with 1× sample buffer. 20 μg of proteins were separated on 4-12% Tris-glycine or Bis-Tris SDS-PAGE. The following antibodies were used: anti-PINK1 (Novus Biologicals), anti-PARL N-terminal (a gift from L. Pellegrini), anti-Tom20 (Santa Cruz Biotechnology, Inc.), anti-AIF (Sigma-Aldrich) and antiHtra2/Omi (R&D systems) polyclonal antibodies; anti-VDAC (Calbiochem), anti-Tubulin, anti-βactin (Sigma-Aldrich), anti-Hsp70 (Cell Signaling Technologies), anti-Tom20 (BD), anti-Tim23 and anti-cytochrome C (BD) monoclonal antibodies.

HeLa cells [4] = experiment: Mitochondrial translocation of Parkin by imaging (Examples 4 and 5); conditions: HeLa cells or PINK1 KO cells, without CCCP
Description: as §2
For immunocytochemistry, cultured cells in borosilicated chamber slides were fixed with 4% paraformaldehyde in PBS (USB) and permeabilized with the indicated detergent. After 30 min blocking with 10% BSA in PBS, cells were stained with the following primary antibodies: antiTom20 polyclonal antibody (Santa Cruz Biotechnology, Inc.) and anti-cytochrome C monoclonal antibody (BD), or anti-Tom20 monoclonal antibody (BD) and anti-GFP polyclonal antibody (Invitrogen) and then with the following secondary antibodies: goat anti-mouse/rabbit IgG antibody conjugated with Alexa Fluor 594/647, respectively. In case of live cell imaging, cells were pulsed with 600 nM TMRE for 5 min to evaluate mitochondrial membrane potential or 10 nM Mitotracker Red for 30 min to see the mitochondrial morphology. Cells were imaged using an inverted microscope (LSM510 Meta; Carl Zeiss) with 63×/1.4 oil DIC Plan Apo objective. Image contrast and brightness were adjusted in LSM image browser (Carl Zeiss).

[5] = tested on: HeLa cells stably expressing GFP-LC3; experiment: Mitochondria encapsulated by LC3-positive autophagosomes; conditions: 10 μM CCCP, 1 hour
Description: Previous studies in mammalian cells have concluded that depolarized mitochondria are degraded by autophagy. To test whether Parkin may be regulating this process, colocalization was assessed between a marker of autophagosomes, LC3, and mitochondria after mitochondrial depolarization using HeLa cells stably transfected with GFP-LC3 (Bampton et al., 2005). Little colocalization between mitochondria and autophagosomes was seen after 1 hours of CCCP exposure in untransfected HeLa cells (FIG. 5A, left). […] Consistent with the conclusion that Parkin accumulates on mitochondria destined for autophagy, Parkin colocalized with LC3 after CCCP treatment (FIG. 5C) but not before.
HeLa cells stably expressing YFP-Parkin using the Flp-In system (Invitrogen) were creating according to the manufacturer's instructions and maintained in 300 μg/ml hygromycin (Sigma-Aldrich). Rat cortical neurons were isolated on embryonic day 18 and grown in neurobasal media supplemented with B-27, L-glutamine, and penicillin/streptomycin. All cell culture materials were obtained from Invitrogen and all chemicals were obtained from Sigma-Aldrich. Chemicals were prepared from DMSO stock solutions, except paraquat, N-acetyl-cysteine, and 3-methyladenine, which were added fresh to media. Mfn1−/−, Mfn2−/− and Mfn1−/−, Mfn2−/− double knockout MEFs were generously donated by D. C. […]

CO[C@H]1[C@@H](O)[C@H](C)C[C@H](C)/C=C/C=C/C=C(\C)[C@@H](c2c[nH]c3c(C)cccc23)C[C@@H]2CC[C@@H](C)[C@@](O)(O2)C(=O)C(=O)N2CCCC[C@H]2C(=O)O[C@H]([C@H](C)C[C@@H]2CC[C@@H](O)[C@H](OC)C2)C[C@H](O)[C@H](C)/C=C(\C)[C@H]1O [AP21967]
cells with mCherry-Parkin recruited to mitochondria (HeLa cells [1]; HeLa with FRB-PINK1Δ1-110-YFP, TOM20-FKBP, mCherry-Parkin, 250 nM AP21967, 8 hours, absence of CCCP): 96.7±4.1%
recruitment of FRB-PINK1Δ1-110-YFP to the outer mitochondrial membrane (HeLa cells [1]; HeLa, 250 nM AP21967): quickly recruited

C[n+]1ccc(-c2cc[n+](C)cc2)cc1 [paraquat, reference compound]
average pearson coefficient PINK1-YFP / MTR (HeLa cells [2]): 0.26±0.13
average pearson coefficient PINK1-YFP / cytochrome c (HeLa cells [2]): 0.58±0.11
YFP-Parkin recruitment to mitochondria (HeLa cells [3]): recruited to depolarized mitochondria
YFP-Parkin recruitment to mitochondria (HeLa cells [3]; listed as Paraquat): triggers Parkin recruitment to mitochondria

B1: G97F: PINK1-YFP transmembrane domain point mutant (protein, UniProt Q9BXM7 78-581, looked up, variant G97F)
Serine/threonine-protein …: AARLQRQFVVRAWGCAGPCFRAVFLAFGLGLGLIEEKQAESRRAVSACQEIQAIFTQKSKPGPDPLDTRRLQGFRLEEYLIGQSIGKGCSAAVYEATMPTLPQNLEVTKSTGLLPGRGPGTSAPGEGQERAPGAPAFPLAIKMMWNISAGSSSEAILNTMSQELVPASRVALAGEYGAVTYRKSKRGPKQLAPHPNIIRVLRAFTSSVPLLPGALVDYPDVLPSRLHPEGLGHGRTLFLVMKNYPCTLRQYLCVNTPSPRLAAMMLLQLLEGVDHLVQQGIAHRDLKSDNILVELDPDGCPWLVIADFGCCLADESIGLQLPFSSWYVDRGGNGCLMAPEVSTARPGPRAVIDYSKADAWAVGAIAYEIFGLVNPFYGQGKAHLESRSYQEAQLPALPESVPPDVRQLVRALLQREASKRPSARVAANVLHLSLWGEHILALKNLKLDKMVGWLLQQSAATLLANRLTEKCCVETKMKMLFLANLECETLCQAALLLCSWRAAL
modifications: YFP fusion
notes: PINK1-YFP transmembrane domain point mutant
levels of FL and/or ΔMTS-PINK1 (PINK1): dramatically increased levels

B2: A103W: PINK1-YFP transmembrane domain point mutant (protein, UniProt Q9BXM7 78-581, looked up, variant A103W)
Serine/threonine-protein …: B1 Serine/threonine-protein … with F20G, A26W
modifications: C-terminal YFP fusion
notes: as for B1
mitochondrial translocation of Parkin induced by PINK1 mutant (HeLa cells [4]): did not recruit Parkin
52 kDa fragment of PINK1 (PINK1): stabilize the 52 kDa fragment

B3: R98F: PINK1-YFP transmembrane domain point mutant (protein, UniProt Q9BXM7 78-581, looked up, variant R98F)
Serine/threonine-protein …: B1 Serine/threonine-protein … with F20G, R21F
modifications: YFP fusion
notes: as for B1
mitochondrial translocation of Parkin induced by PINK1 mutant (HeLa cells [4]): did not induce
levels of FL and/or ΔMTS-PINK1 (PINK1): dramatically increased levels

B4: G105W: PINK1-YFP transmembrane domain point mutant (protein, UniProt Q9BXM7 78-581, looked up, variant G105W)
Serine/threonine-protein …: B1 Serine/threonine-protein … with F20G, G28W
modifications: C-terminal YFP fusion
notes: as for B1
mitochondrial translocation of Parkin induced by PINK1 mutant (HeLa cells [4]): did not recruit Parkin
52 kDa fragment of PINK1 (PINK1): stabilize the 52 kDa fragment

B5: mCherry-Parkin: mCherry-tagged Parkin expressed from a transfected vector (protein, UniProt O60260 1-465, looked up)
E3 ubiquitin-protein ligase …: MIVFVRFNSSHGFPVEVDSDTSIFQLKEVVAKRQGVPADQLRVIFAGKELRNDWTVQNCDLDQQSIVHIVQRPWRKGQEMNATGGDDPRNAAGGCEREPQSLTRVDLSSSVLPGDSVGLAVILHTDSRKDSPPAGSPAGRSIYNSFYVYCKGPCQRVQPGKLRVQCSTCRQATLTLTQGPSCWDDVLIPNRMSGECQSPHCPGTSAEFFFKCGAHPTSDKETSVALHLIATNSRNITCITCTDVRSPVLVFQCNSRHVICLDCFHLYCVTRLNDRQFVHDPQLGYSLPCVAGCPNSLIKELHHFRILGEEQYNRYQQYGAEECVLQMGGVLCPRPGCGAGLLPEPDQRKVTCEGGNGLGCGFAFCRECKEAYHEGECSAVFEASGTTTQAYRVDERAAEQARWEAASKETIKKTTKPCPRCHVPVEKNGGCMHMKCPQPQCRLEWCWNCGCEWNRVCMGDHWFDV
modifications: mCherry fusion
notes: mCherry-tagged Parkin expressed from a transfected vector
LC3 encompassed mitochondria per cell [5]: 10.55±6.06
